Data published in patent US20100015126A1, “Methods of Binding of Cross-Beta Structures By Chaperones” (priority 2006, published 2010).

Target: T1, recombinant human HSP90beta (Homo sapiens, UniProt P08238)
T1 construct: purchased Dr. S. Rüdiger, Cellular Protein Chemistry, Utrecht University
Assay: ELISA: binding of HSP90 to immobilized (misfolded) protein ligands
Conditions: 5 mM DTT in binding buffer
Protocol: Recombinant human HSP90beta was bought from Dr. S. Rüdiger (Cellular Protein Chemistry, Department of Chemistry, Faculty of Science, Utrecht University). HSP90beta eluted from an anion exchange column was supplied in 35 mM Bis-Tris/25mM Tris, 5 mM DTT, approximately 385 mM NaCl, approximately pH 9.0. The HSP90beta concentration was 5.0 μM (450 μg/ml with a MW of 90.000 Da; extinction coefficient of 53740 l/(mol*cm)). The supplied frozen stock is kept at −80° C. Before use, the stock is quickly thawed almost completely in a 37° C. water bath, and kept at wet ice. Before use, the HSP90beta solution is centrifuged for 5 minutes at 16,000*g at 4° C. During dilution of HSP90beta solution, 5 mM DTT should be incorporated in the dilution buffer, to keep free Cys residues. Thawed HSP90beta was aliquoted and snap frozen in liquid nitrogen before re-storage at −80° C.
Binding of chaperones to immobilized (misfolded) protein ligands was determined using an enzyme linked immuno sorbent assay (ELISA) approach. […] After 5 washes with wash buffer followed by two washes with PBS, binding of antibodies was assessed. […] Plates were read at 450 nm. Triplicates were averaged and standard deviations calculated. […]

T1 sequence (P08238 whole entry): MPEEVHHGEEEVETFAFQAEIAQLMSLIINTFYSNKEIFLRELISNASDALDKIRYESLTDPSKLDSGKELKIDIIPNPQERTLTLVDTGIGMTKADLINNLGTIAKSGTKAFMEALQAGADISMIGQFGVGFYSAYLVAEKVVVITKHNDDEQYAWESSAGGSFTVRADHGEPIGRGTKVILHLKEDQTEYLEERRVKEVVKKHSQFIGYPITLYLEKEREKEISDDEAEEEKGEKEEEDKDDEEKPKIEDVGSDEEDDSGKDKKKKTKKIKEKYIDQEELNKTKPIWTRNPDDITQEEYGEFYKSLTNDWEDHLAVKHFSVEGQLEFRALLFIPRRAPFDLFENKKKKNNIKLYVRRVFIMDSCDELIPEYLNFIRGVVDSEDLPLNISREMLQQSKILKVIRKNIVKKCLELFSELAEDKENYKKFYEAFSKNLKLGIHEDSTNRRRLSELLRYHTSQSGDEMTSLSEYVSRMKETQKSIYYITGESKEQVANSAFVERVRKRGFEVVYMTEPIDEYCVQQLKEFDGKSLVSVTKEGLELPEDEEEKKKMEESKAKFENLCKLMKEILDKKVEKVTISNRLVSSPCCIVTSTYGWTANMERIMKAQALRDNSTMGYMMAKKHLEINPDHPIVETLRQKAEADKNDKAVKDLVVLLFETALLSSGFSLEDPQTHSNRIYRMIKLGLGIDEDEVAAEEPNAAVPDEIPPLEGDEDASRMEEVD

B1: dOVA standard: heat-denatured chicken ovalbumin (protein)
chain: GSIGAASMEFCFDVFKELKVHHANENIFYCPIAIMSALAMVYLGAKDSTRTQINKVVRFDKLPGFGDSIEAQCGTSVNVHSSLRDILNQITKPNDVYSFSLASRLYAEERYPILPEYLQCVKELYRGGLEPINFQTAADQARELINSWVESQTNGIIRNVLQPSSVDSQTAMVLVNAIVFKGLWEKAFKDEDTQAMPFRVTEQESKPVQMMYQIGLFRVASMASEKMKILELPFASGTMSMLVLLPDEVSGLEQLESIINFEKLTEWTSSNVMEERKIKVYLPRMKMEEKYNLTSVLMAMGITDVFSSSANLSGISSAESLKISQAVHAAHAEINEAGREVVGSAEAGVDAASVSEEFRADHPFLFCIKHIATNAVLFFGRCVSP
- Binding of concentration series of HSP90 to coated ligand: did also not bind
